In article PMC7344267 one finds normalized collision energy for 50% signal decay of the complex and stoichiometry N data, which are given here for one molecule.

What is called stoichiometry N is a count of units in the complex or per binding partner.

This experiment addresses T1, Nt^17 peptide, the seventeen-residue N-terminal region of huntingtin (htt).
T1 chain: MATLEKLMKAFESLKSF
As to the kind of experiment: native MS. As to conditions: remark: other sources report otherwise.

In turn, MATLEKLMKAFESLKSF [Nt^17 peptide, the seventeen-residue N-terminal region of huntingtin (htt)] had a normalized collision energy for 50% signal decay of the complex of 20 NCE and a stoichiometry N of 4.
